Patent US20150368338A1 (Janssen / Centocor, published 2015)

Experiments:
IFN-α1 = target: T1, IFN-α1 (human, UniProt A0A087WWS6 25-190); test: ProteOn
T1 construct: also called Ala114 IFN-αD

IFN-αF [1] = target: T2, IFN-αF (human, UniProt P01568 24-189); test: cell-based or functional assay
T2 chain: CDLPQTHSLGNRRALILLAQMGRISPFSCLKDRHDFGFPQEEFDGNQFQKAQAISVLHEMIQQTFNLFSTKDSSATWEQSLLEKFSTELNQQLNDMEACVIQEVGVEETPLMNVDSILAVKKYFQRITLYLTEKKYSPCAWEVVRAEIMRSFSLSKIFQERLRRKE

IFN-αWA [2] = target: T3, IFN-αWA (human, UniProt P05015 24-189); test: cell-based or functional assay
IFN-αC [3] = target: T4, IFN-αC (human, UniProt P01566 24-189); test: cell-based or functional assay
IFN-αG [4] = target: T5, IFN-αG (human, UniProt P01569 24-189); test: cell-based or functional assay
IFN-αJ1 [5] = target: T6, IFN-αJ1 (human, UniProt P01567 24-189); test: cell-based or functional assay
IFN-αH2 [6] = target: T7, IFN-αH2 (human, UniProt P01570 24-189); test: cell-based or functional assay
IFN-αK [7] = target: T8, IFN-αK (human, UniProt P05013 24-189); test: cell-based or functional assay
human IFN-ω = human IFN-ω (human, UniProt P05000 24-195); test: cell-based or functional assay
IFN-α4a [8] = target: T9, IFN-α4a (human, UniProt P05014 24-189); test: cell-based or functional assay
IFN-αF [9] = target: T2, IFN-αF; test: ProteOn
IFN-αWA [10] = target: T3, IFN-αWA; test: ProteOn
IFN-αC [11] = target: T4, IFN-αC; test: ProteOn
IFN-αG [12] = target: T5, IFN-αG; test: ProteOn
IFN-αJ1 [13] = target: T6, IFN-αJ1; test: ProteOn
Chimp IFN-ω = target: T10, Chimp IFN-ω (chimpanzee, UniProt P05000 24-195 (human entry)); test: ProteOn
T10 construct: also called chimpanzee IFN-ω

IFN-αH2 [14] = target: T7, IFN-αH2; test: ProteOn
IFN-αK [15] = target: T8, IFN-αK; test: ProteOn
Cyno IFN-ω = target: T11, Cyno IFN-ω (cynomolgus, UniProt P05000 24-195 (human entry)); test: ProteOn
T11 construct: also called cynomolgus IFN-ω
T11 chain: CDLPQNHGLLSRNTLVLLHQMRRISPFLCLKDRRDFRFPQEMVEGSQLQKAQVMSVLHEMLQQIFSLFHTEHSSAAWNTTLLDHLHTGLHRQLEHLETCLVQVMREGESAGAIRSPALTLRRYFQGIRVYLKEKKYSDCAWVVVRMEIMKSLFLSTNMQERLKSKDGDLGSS

IFN-αD = target: T12, IFN-αD (human, UniProt A0A087WWS6 25-190); test: ProteOn
T12 construct: also called Val114 IFN-α1
T12 chain: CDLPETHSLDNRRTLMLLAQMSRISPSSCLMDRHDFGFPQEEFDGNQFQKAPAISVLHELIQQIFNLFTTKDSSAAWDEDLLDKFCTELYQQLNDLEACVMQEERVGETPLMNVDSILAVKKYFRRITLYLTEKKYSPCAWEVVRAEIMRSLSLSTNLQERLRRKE

IFN-β = IFN-β (human, UniProt P01574 22-187); test: ProteOn
IFN-α4a [16] = target: T9, IFN-α4a; test: ProteOn

B1: IFWM371 (antibody, IgG1, V domains shown)
VH: EVQLVQSGAEVKKPGESLKISCKGSGYSFTSYWIGWVRQMPGKGLEWMGIIDPSDSDTRYSPSFQGQVTISADKSISTAYLQWSSLKASDTAMYYCARHPGLNWAPDFDYWGQGTLVTVSS
VL: not shown
notes: Fab cloned into IgG1/kappa background; also called IFWB351; parental mAb
IFN-α1
  binding result: no binding
IFN-αF [1]
  IC50 (nM), ISRE reporter gene assay: 16 nM
IFN-αWA [2]
  IC50 (nM), ISRE reporter gene assay: 74.2 nM
IFN-αC [3]
  IC50 (nM), ISRE reporter gene assay: 53.9 nM
IFN-αG [4]
  IC50 (nM), ISRE reporter gene assay: 12.9 nM
IFN-αJ1 [5]
  IC50 (nM), ISRE reporter gene assay: 35.7 nM
IFN-αH2 [6]
  IC50 (nM), ISRE reporter gene assay: 9.6 nM
IFN-αK [7]
  IC50 (nM), ISRE reporter gene assay: 7.3 nM
Human IFN-ω
  IC50 (nM), ISRE reporter gene assay: 43.9 nM
IFN-α4a [8]
  IC50 (nM), ISRE reporter gene assay: 32.8 nM
IFN-αF [9]
  Kd: 5.31 nM
IFN-αWA [10]
  Kd: 3.18 nM
IFN-αC [11]
  Kd: 1.67 nM
IFN-αG [12]
  Kd: 1.11 nM
IFN-αJ1 [13]
  Kd: 10.8 nM
Chimp IFN-ω
  Kd: 1.08 nM
IFN-αH2 [14]
  Kd: 0.179 nM
IFN-αK [15]
  Kd: 0.245 nM
Cyno IFN-ω
  Kd: 0.887 nM
IFN-αD
  binding result: no binding
IFN-β
  binding result: no binding
IFN-α4a [16]
  Kd: 5.39 nM
